Results reported in publication PMC11575451 (The Journal of Cell Biology, 2024).

Biological target: T1, FLAG-HA-RTN3L (human, UniProt O95197 1-1032)
T1 sequence (looked up): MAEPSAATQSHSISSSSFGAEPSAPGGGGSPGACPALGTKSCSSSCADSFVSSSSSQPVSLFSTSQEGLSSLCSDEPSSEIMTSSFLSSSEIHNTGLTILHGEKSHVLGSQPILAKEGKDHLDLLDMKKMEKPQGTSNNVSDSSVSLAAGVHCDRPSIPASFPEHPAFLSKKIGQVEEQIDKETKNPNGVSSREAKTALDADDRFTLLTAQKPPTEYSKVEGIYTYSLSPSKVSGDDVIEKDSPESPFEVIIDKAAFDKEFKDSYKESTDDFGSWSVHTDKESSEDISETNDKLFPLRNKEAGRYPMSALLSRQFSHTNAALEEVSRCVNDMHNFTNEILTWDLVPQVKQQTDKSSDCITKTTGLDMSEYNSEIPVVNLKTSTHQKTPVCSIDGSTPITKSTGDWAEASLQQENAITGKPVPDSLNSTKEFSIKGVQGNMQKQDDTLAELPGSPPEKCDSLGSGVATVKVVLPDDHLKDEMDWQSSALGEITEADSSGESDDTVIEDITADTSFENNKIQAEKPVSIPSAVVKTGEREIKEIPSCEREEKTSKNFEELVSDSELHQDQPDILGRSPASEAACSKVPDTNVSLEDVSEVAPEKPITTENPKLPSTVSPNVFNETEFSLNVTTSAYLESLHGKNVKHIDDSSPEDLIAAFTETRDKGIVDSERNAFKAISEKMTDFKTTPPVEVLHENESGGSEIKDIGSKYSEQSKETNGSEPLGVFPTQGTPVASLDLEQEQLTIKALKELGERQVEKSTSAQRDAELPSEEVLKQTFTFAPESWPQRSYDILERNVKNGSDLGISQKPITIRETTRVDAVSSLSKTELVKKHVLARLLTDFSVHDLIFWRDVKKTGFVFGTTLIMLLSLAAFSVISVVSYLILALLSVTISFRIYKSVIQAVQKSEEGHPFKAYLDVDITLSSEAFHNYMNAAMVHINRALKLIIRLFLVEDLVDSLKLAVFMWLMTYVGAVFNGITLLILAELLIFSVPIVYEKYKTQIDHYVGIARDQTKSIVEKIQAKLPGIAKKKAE
Assay: co-IP

PEF1 precipitated in the tagged sample relative to the untagged control: 4.8 x
B1: PEF1 (natural protein, human (endogenous in U2OS), UniProt Q9UBV8 1-284, looked up)
chain: MASYPYRQGCPGAAGQAPGAPPGSYYPGPPNSGGQYGSGLPPGGGYGGPAPGGPYGPPAGGGPYGHPNPGMFPSGTPGGPYGGAAPGGPYGQPPPSSYGAQQPGLYGQGGAPPNVDPEAYSWFQSVDSDHSGYISMKELKQALVNCNWSSFNDETCLMMINMFDKTKSGRIDVYGFSALWKFIQQWKNLFQQYDRDRSGSISYTELQQALSQMGYNLSPQFTQLLVSRYCPRSANPAMQLDRFIQVCTQLQVLTEAFREKDTAVQGNIRLSFEDFVTMTASRML
